Experiments:
[1] = target: T1, cynomolgus macaque LILRB1.1-Fc fusion protein (cynomolgus macaque; human); test: biolayer interferometry (ForteBio), mAb on anti-mouse Fc sensor, LILR-Fc in solution, 1:1 global fit
T1 construct: extracellular domain; Produced in HEK293T cells; also called mLILRB1.1; mLILRB1.1-Fc

[2] = target: T2, cynomolgus macaque LILRB1.2-Fc fusion protein (cynomolgus macaque; human); test: as above
T2 construct: extracellular domain; Produced in HEK293T cells; also called mLILRB1.2; mLILRB1.2-Fc

[3] = target: T3, cynomolgus macaque LILRB2.1-Fc fusion protein (cynomolgus macaque; human); test: as above
T3 construct: extracellular domain; Produced in HEK293T cells; also called mLILRB2.1; mLILRB2.1-Fc

[4] = target: T4, cynomolgus macaque LILRB2.2-Fc fusion protein (cynomolgus macaque; human); test: as above
T4 construct: extracellular domain; Produced in HEK293T cells; also called mLILRB2.2; mLILRB2.2-Fc

[5] = target: T5, recombinant human LILRA1-Fc fusion protein (human, UniProt O75019 17-461); test: as above
T5 construct: hLILR-Fc purchased from R&D Systems; also called hLILRA1; hLILRA1-Fc; not shown: Fc part of the fusion bought from R&D Systems; captured by anti-human immunoglobulin
T5 sequence (O75019 17-461): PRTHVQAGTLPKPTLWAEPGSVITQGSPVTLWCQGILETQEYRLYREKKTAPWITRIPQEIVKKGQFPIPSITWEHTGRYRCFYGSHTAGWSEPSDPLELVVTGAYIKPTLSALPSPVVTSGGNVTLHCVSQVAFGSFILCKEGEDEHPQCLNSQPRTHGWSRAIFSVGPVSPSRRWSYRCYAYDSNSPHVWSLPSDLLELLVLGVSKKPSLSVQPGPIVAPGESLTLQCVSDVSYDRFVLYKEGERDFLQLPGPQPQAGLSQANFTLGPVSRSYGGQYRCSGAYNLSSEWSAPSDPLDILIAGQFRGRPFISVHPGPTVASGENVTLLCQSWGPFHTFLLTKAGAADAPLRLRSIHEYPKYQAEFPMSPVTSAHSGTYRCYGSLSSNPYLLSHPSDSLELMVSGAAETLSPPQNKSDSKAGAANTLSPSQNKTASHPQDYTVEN

[6] = target: T6, recombinant human LILRA3-Fc fusion protein (human, UniProt Q8N6C8 24-439); test: as above
T6 construct: hLILR-Fc purchased from R&D Systems; also called hLILRA3; hLILRA3-Fc; not shown: Fc part of the fusion bought from R&D Systems
T6 sequence (Q8N6C8 24-439): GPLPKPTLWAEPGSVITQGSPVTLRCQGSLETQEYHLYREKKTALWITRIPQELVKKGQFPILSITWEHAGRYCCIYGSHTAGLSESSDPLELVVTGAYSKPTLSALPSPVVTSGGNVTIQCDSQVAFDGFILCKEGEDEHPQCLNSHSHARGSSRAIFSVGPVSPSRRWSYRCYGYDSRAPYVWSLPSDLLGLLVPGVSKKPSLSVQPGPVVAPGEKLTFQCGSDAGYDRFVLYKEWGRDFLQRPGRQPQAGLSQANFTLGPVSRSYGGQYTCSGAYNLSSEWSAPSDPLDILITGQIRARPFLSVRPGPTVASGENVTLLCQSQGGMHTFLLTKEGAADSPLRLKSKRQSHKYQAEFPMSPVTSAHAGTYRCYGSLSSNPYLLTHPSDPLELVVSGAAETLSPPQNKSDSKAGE

[7] = target: T7, recombinant human LILRB1-Fc fusion protein (human, UniProt Q8NHL6 24-458); test: as above
T7 construct: hLILR-Fc purchased from R&D Systems; also called hLILRB1-Fc; hLILRB1; not shown: Fc part of the fusion bought from R&D Systems; detected with anti-human IgG
T7 sequence (Q8NHL6 24-458): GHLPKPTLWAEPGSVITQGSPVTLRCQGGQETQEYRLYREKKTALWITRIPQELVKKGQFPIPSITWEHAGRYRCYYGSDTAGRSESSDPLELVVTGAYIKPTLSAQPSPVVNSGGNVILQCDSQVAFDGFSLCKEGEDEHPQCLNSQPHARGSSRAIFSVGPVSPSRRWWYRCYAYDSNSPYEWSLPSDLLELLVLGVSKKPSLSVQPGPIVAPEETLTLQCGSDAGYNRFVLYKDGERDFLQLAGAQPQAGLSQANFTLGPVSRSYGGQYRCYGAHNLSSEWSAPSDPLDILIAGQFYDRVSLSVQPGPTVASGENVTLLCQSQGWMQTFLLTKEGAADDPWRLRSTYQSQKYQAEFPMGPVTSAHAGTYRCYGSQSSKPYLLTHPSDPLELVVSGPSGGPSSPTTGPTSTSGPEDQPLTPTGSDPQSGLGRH

[8] = target: T8, recombinant human LILRA2-Fc fusion protein (human, UniProt Q8N149 24-449); test: EIA on hLILR-Fc captured by goat anti-human Ig on the plate; AChE-labelled goat anti-mouse antibody; absorbance (axis printed 'DO 141nm'); no blank curve on the sheet
T8 construct: not shown: Fc part of the fusion bought from R&D Systems
T8 sequence (Q8N149 24-449): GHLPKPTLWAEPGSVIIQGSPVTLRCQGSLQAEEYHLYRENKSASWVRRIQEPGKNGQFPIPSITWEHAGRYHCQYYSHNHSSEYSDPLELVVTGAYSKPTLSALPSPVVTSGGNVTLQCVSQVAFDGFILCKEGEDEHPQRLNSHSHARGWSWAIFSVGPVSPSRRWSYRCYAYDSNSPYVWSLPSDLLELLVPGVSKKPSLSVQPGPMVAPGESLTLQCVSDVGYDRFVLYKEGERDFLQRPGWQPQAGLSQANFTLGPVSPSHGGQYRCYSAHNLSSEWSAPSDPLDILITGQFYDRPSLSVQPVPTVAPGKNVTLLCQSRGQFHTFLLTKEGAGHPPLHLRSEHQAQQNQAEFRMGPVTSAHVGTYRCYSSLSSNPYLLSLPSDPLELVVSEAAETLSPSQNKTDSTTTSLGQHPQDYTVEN

[9] = target: T9, recombinant human LILRA4-Fc fusion protein (human, UniProt P59901 24-446); test: as above
T9 construct: not shown: Fc part of the fusion bought from R&D Systems
T9 sequence (P59901 24-446): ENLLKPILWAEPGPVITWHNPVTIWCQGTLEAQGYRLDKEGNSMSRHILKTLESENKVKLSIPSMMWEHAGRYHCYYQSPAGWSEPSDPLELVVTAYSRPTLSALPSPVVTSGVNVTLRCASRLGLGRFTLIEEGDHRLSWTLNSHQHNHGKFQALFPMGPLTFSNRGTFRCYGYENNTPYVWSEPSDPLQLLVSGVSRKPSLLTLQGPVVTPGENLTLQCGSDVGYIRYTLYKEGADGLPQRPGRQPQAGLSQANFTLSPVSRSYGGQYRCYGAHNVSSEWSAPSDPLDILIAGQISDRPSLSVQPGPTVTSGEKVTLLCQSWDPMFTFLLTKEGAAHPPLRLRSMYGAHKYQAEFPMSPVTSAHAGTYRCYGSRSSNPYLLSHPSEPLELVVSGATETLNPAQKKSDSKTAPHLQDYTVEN

[10] = target: T10, recombinant human LILRA5-Fc fusion protein (human, UniProt A6NI73 42-268); test: as above
T10 construct: not shown: Fc part of the fusion bought from R&D Systems
T10 sequence (A6NI73 42-268): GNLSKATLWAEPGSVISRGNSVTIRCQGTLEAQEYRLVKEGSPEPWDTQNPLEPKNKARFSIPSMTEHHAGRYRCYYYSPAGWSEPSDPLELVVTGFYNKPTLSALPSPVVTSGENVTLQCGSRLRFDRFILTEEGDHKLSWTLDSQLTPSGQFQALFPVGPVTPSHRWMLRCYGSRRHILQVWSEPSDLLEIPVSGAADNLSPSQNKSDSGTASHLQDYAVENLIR

[11] = target: T11, recombinant human LILRB3-Fc fusion protein (human, UniProt O75022 24-443); test: as above
T11 construct: not shown: Fc part of the fusion bought from R&D Systems
T11 sequence (O75022 24-443): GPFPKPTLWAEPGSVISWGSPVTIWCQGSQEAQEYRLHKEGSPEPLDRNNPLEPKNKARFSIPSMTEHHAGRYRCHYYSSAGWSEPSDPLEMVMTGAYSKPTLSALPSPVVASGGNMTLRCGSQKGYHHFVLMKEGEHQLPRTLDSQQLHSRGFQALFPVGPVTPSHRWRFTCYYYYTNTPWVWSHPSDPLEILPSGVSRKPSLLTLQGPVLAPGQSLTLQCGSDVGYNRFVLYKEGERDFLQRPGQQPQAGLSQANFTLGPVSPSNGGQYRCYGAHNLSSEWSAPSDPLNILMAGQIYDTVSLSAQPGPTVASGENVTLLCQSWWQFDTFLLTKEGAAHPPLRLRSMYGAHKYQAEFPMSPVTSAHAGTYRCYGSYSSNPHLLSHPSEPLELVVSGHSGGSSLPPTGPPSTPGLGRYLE

[12] = target: T12, recombinant human LILRB4-Fc fusion protein (human, UniProt Q8NHJ6 22-259); test: as above
T12 construct: not shown: Fc part of the fusion bought from R&D Systems

[13] = target: T13, recombinant human LILRB5-Fc fusion protein (human, UniProt O75023 24-458); test: as above
T13 construct: not shown: Fc part of the fusion bought from R&D Systems
T13 sequence (O75023 24-458): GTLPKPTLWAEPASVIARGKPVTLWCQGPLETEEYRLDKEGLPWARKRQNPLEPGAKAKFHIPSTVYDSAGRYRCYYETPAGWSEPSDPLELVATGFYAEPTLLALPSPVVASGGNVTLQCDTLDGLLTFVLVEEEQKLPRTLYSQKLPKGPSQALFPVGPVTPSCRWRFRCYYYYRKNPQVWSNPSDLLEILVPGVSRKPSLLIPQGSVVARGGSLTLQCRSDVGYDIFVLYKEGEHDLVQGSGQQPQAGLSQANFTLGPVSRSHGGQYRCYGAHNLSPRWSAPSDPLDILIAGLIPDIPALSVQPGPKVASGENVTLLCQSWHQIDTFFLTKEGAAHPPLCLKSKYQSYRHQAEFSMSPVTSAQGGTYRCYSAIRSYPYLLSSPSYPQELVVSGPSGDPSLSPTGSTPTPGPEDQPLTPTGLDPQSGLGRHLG

[14] = target: T14, human LILRB1 expressed on stably transduced CHO cells (human, UniProt Q8NHL6 24-650); test: flow cytometry, same method as FIG. 1B (CHO cells expressing human LILRB1)
T14 construct: whole, on cells; also called hLILRB1; CHO hLILRB1 cell line
T14 sequence (Q8NHL6 24-650): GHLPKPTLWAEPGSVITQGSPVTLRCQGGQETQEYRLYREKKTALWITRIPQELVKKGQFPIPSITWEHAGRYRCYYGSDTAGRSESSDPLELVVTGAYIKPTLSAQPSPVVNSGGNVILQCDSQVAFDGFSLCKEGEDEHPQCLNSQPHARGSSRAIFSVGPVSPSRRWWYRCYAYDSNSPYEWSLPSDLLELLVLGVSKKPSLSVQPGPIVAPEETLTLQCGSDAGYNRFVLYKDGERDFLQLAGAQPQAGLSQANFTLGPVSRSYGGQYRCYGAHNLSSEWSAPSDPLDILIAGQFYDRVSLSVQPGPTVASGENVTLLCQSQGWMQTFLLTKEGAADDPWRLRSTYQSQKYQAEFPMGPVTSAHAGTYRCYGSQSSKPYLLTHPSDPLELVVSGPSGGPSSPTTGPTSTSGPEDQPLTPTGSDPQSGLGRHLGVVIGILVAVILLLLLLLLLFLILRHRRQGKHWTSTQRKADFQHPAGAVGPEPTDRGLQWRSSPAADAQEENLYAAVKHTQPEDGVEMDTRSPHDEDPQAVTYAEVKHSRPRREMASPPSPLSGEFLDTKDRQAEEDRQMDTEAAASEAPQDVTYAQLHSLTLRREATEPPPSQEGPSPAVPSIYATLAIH

[15] = target: T15, recombinant human LILRB2-Fc fusion protein (human, UniProt Q8N423 22-457); test: biolayer interferometry (ForteBio), mAb on anti-mouse Fc sensor, LILR-Fc in solution, 1:1 global fit
T15 construct: hLILR-Fc purchased from R&D Systems; also called hLILRB2-Fc; hLILRB2; not shown: Fc part of the fusion bought from R&D Systems; detected with anti-human IgG
T15 sequence (Q8N423 22-457): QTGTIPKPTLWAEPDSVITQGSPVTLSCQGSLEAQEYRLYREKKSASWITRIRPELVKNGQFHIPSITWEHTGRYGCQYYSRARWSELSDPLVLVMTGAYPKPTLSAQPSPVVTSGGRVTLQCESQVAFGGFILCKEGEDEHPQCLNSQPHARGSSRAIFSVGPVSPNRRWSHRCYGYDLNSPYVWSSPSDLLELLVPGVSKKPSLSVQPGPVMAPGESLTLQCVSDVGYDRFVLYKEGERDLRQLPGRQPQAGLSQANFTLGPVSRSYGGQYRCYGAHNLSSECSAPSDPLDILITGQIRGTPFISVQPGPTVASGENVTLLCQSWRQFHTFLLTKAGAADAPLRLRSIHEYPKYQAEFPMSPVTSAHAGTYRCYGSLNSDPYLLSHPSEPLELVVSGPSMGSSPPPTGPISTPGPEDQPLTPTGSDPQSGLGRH

Binder | Kd [1] | Kd [2] | Kd [3] | Kd [4] | Kd [5] | Kd [6] | Kd [7] | binding result [8] | binding result [9] | binding result [10] | binding result [11] | binding result [12] | binding result [13] | binding result [14] | Kd [15]
B1.2.2 monoclonal antibody (antibody, V domains shown, Mouse monoclonal antibody purified from hybridoma supernatant (immunisation with mLILRB1.2-Fc); also called B1.2.2 mAb; clone 20G10) VH: EVQLVESGGGLVKPGGSLKLSCAASGFTFSDYGMHWVRQAPEKGLEWVAYISSGSSTSYYADTVKGRFTISRDDAKNTLFLQMTSLRSEDTAMYYCARPGSNWDVYYAMDYWGQGTSVTVSS VL: DIVLTQSPASLAVSLGQRATISCRASQSVSTSSYSYMHWYQQKPGQPPKLLIKNASNLESGVPARFSGSGSGTDFTLNIHPVEEEDTATYYCQHSWEIPFTFGGGTKLEIK | 3600 pM | 120 pM | 480 pM | 71 pM | 370 pM | 3200 pM | 870 pM | no binding (tested: 10 µg/ml) | no binding (tested: 10 µg/ml) | no binding (tested: 10 µg/ml) | no binding (tested: 10 µg/ml) | no binding (tested: 10 µg/ml) | no binding (tested: 10 µg/ml) | – | –
BF14 humanized antagonist antibody of Family AB2 (antibody, V domains shown) VH: QVQLVESGGGVVQPGRSLRLSCAASGFTFSDYGMHWVRQAPGKGLEWVAYISSGSSTSYYADTVKGRFTISRDDSKNTLYLQMNSLRAEDTAVYYCARPGSNWDVYYAMDYWGQGTLVTVSS VL: DIQLTQSPSSLSASVGDRVTITCRASQSVSTSSYSYMHWYQQKPGKAPKLLIKNASNLESGVPSRFSGSGSGTDFTLTISSLQPEDFATYYCQHSWEIPFTFGPGTKVDIK | – | – | – | – | – | – | – | – | – | – | – | – | – | binds | –
B1.2.1 monoclonal antibody (antibody, V domains shown, Mouse monoclonal antibody purified from hybridoma supernatant (immunisation with mLILRB1.2-Fc); also called B1.2.1 mAb) VH: EVQLVESGGGLVQPKGSLKLSCAASGFTFNTHAMHWVRQAPGKGLEWVARIRSKSSNYATFYADSVKDRFTISRDDSQSMLYLQMNNLKTEDTAIYFCVMVYYGNSPYYSMDYWGQGTSVTVSS VL: NIVMTQSPKSMSMSVGERVTLSCKASENVGTYVSWYQQKPEQSPKLLIYGASNRYTGVPDRFTGSGSATDFTLIINNIQAEDLADYHCGQSYSSPLTFGAGTKLELK | 3.9 pM | 14 pM | – | 2900 pM | 730 pM | 1300 pM | 530 pM | no binding (tested: 10 µg/ml) | no binding (tested: 10 µg/ml) | no binding (tested: 10 µg/ml) | no binding (tested: 10 µg/ml) | no binding (tested: 10 µg/ml) | no binding (tested: 10 µg/ml) | – | 140 pM

From patent US20230382991A1 (COMMISSARIAT A L ENERGIE ATOMIQUE ET AUX ENERGIES …, published 2023)
